According to patent US20240092849A1 (MIT, published 2024):
Bridge positions count the residues as written; N and C are the ends. Square brackets hold non-standard residues; d marks the D form. Ends that are not written are not given here. alpha‑4‑pentenylAla = alpha-4-pentenyl alanine, stapling residue joined by ring-closing olefin metathesis; Cha = N[C@@H](CC1CCCCC1)C(=O)O; Nle = CCCC[C@H](N)C(=O)O; Aib = CC(C)(N)C(=O)O

B1: M3d (peptide)
peptide: IW[Nle][Aib]QG[Cha]RRLGDEI[alpha‑4‑pentenylAla]AYY[alpha‑4‑pentenylAla]RR
modifications: staple 15-19
notes: Stapled peptide IWBAibQGChaRRLGDEIXAYYXRR
B2: M1d (peptide)
peptide: IW[Nle]TQGLRRLGDEI[alpha‑4‑pentenylAla]AYY[alpha‑4‑pentenylAla]RR
modifications: staple 15-19
notes: Truncated, stapled variant of MS1, usually printed 'Mld'; also called Mld
B3: biotinylated M3d (peptide)
peptide: IW[Nle][Aib]QG[Cha]RRLGDEI[alpha‑4‑pentenylAla]AYY[alpha‑4‑pentenylAla]RR
modifications: staple 15-19; also: biotinylated, site and linker not given here
notes: also called M3d (biotinylated stapled peptide)

Experiments:
murine Mcl-1 = murine Mcl-1 (murine, UniProt P97287 1-331); assay: cell-based or functional assay
Mcl-1 [1] = biological target: T1, Mcl-1 (human, UniProt Q07820 172-327, limits assumed); assay: fluorescence anisotropy competition with fluoresceinated Bim 21mer for Mcl-1
T1 construct: Recombinant protein in solution assays; It was biotinylated in the on-bead screens; also called human Mcl-1; BioMcl-1 (biotinylated, in the bead screens)
Text: The standard errors reported are over three experiments.
Position 2e is usually conserved as small (alanine, glycine, serine) in natural BH3 sequences.

Mcl-1 [2] = biological target: T1, Mcl-1; assay: biolayer interferometry, biotinylated peptide on streptavidin probe
Text: We used biolayer interferometry to measure the kinetics of binding of stapled peptides to Mcl-1 (FIG. 1(b)). We generated biotinylated stapled peptides and attached these to a streptavidin-modified probe surface.

T1 sequence (Q07820 172-327 limits assumed): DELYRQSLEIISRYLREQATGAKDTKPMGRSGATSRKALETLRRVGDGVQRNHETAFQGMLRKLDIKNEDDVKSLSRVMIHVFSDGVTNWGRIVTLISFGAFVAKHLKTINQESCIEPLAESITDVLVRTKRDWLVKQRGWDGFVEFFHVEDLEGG
murine Mcl-1, sequence (P97287 whole entry): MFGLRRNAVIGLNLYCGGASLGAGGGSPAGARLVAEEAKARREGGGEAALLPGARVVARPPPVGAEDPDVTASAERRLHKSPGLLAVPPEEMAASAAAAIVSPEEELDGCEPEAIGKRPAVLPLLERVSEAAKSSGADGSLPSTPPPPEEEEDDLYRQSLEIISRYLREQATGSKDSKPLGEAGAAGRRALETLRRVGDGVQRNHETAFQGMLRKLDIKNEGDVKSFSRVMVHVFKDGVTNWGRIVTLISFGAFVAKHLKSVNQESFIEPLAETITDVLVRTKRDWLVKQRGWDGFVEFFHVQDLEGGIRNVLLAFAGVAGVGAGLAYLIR

Binder	BH3 profiling (mitochondrial membrane integrity, JC1 dye) in Mcl-1/Myc 2640 cells, EC50 (murine Mcl-1)	IC50 (Mcl-1 [1])	Kd (Mcl-1 [2])
B1	30 nM	72 nM	
IW[Nle][Aib]QGLRRLGDEI[alpha‑4‑pentenylAla]AYY[alpha‑4‑pentenylAla]RR (staple 15-19, Stapled peptide IWBAibQGLRRLGDEIXAYYXRR) [M2d]		106 nM	
B2		350 nM	
B3			5 nM
